Data reported in the supplement of paper PMC9112550, “Optimization of the antimicrobial peptide Bac7 by deep mutational scanning” (BMC Biology, 2022).

These sequences were tested on Escherichia coli TOP10 (assay: shrunken log2 fold change of peptide-encoding DNA abundance (4.5 h post-induction vs induction); higher = less antimicrobial activity (less host growth inhibition)). Conditions: time post-induction: 4.5 h; library: site-saturation at positions 5, 18, 19, 20.
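Note: peptides expressed intracellularly from a pBAD plasmid library in pooled LB shake-flask culture, induced with 0.3% L-arabinose, DNA abundance read by NGS, three biological replicates, DESeq2 with apeglm shrinkage.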

| Sequence | shrunken log2 fold change |
| --- | --- |
| RRIRHRPPRLPRPRPRPMHLPRP | 0.0317 |
| RRIRKRPPRLPRPRPRPTHSPRP | 0.168 |
| RRIRWRPPRLPRPRPRPIDHPRP | -0.166 |
| RRIRPRPPRLPRPRPRPRVGPRP | 0.543 |
| RRIRGRPPRLPRPRPRPDTQPRP | 0.632 |
| RRIRYRPPRLPRPRPRPKSDPRP | -0.299 |
| RRIRRRPPRLPRPRPRPNPQPRP | 0.631 |
| RRIRVRPPRLPRPRPRPIAGPRP | 0.0142 |
| RRIRDRPPRLPRPRPRPQPNPRP | 0.072 |
| RRIRQRPPRLPRPRPRPESSPRP | -0.0458 |
| RRIRKRPPRLPRPRPRPLWQPRP | 0.442 |
| RRIRTRPPRLPRPRPRPDMMPRP | -0.182 |
| RRIRNRPPRLPRPRPRPLIMPRP | -0.48 |
| RRIRARPPRLPRPRPRPHDRPRP | 0.128 |
| RRIRTRPPRLPRPRPRPYWGPRP | -0.0337 |
| RRIRRRPPRLPRPRPRPLNAPRP | 0.257 |
| RRIRHRPPRLPRPRPRPKDHPRP | -0.274 |
| RRIRFRPPRLPRPRPRPGSLPRP | -0.479 |
| RRIRGRPPRLPRPRPRPQKNPRP | 0.368 |
| RRIRPRPPRLPRPRPRPHDQPRP | 0.134 |
| RRIRGRPPRLPRPRPRPLNCPRP | -0.0116 |
| RRIRFRPPRLPRPRPRPYFYPRP | -0.808 |
| RRIRHRPPRLPRPRPRPLGCPRP | 0.116 |
| RRIRCRPPRLPRPRPRPVRFPRP | 0.262 |
| RRIRCRPPRLPRPRPRPYQDPRP | -0.725 |

| Sequence | shrunken log2 fold change |
| --- | --- |
| RRIRTRPPRLPRPRPRPWMLPRP | -0.0281 |
| RRIRWRPPRLPRPRPRPQSMPRP | 0.0679 |
| RRIRLRPPRLPRPRPRPGTDPRP | -0.151 |
| RRIRHRPPRLPRPRPRPIVCPRP | -0.0297 |
| RRIRMRPPRLPRPRPRPKYHPRP | -0.488 |
| RRIRSRPPRLPRPRPRPEYSPRP | -0.322 |
| RRIRFRPPRLPRPRPRPDALPRP | -0.0978 |
| RRIRWRPPRLPRPRPRPKTYPRP | -0.421 |
| RRIRLRPPRLPRPRPRPSVGPRP | 0.101 |
| RRIRQRPPRLPRPRPRPFMHPRP | -0.0117 |
| RRIRHRPPRLPRPRPRPDDWPRP | -0.0115 |
| RRIRKRPPRLPRPRPRPCCAPRP | 1.3 |
| RRIRCRPPRLPRPRPRPYPDPRP | -0.282 |
| RRIRLRPPRLPRPRPRPHHLPRP | -0.24 |
| RRIRDRPPRLPRPRPRPPVRPRP | 0.0542 |
| RRIRQRPPRLPRPRPRPYENPRP | 0.00377 |
| RRIRRRPPRLPRPRPRPHYEPRP | -0.508 |
| RRIRPRPPRLPRPRPRPCYIPRP | -0.795 |
| RRIRRRPPRLPRPRPRPNMRPRP | 0.104 |
| RRIRCRPPRLPRPRPRPNYVPRP | -0.304 |
| RRIRARPPRLPRPRPRPPKRPRP | 0.485 |
| RRIRLRPPRLPRPRPRPTKAPRP | 0.0258 |
| RRIRCRPPRLPRPRPRPQVLPRP | -0.0248 |
| RRIRCRPPRLPRPRPRPKGGPRP | 0.094 |
| RRIRQRPPRLPRPRPRPIDWPRP | 1.59e-05 |

| Sequence | shrunken log2 fold change |
| --- | --- |
| RRIRYRPPRLPRPRPRPSTNPRP | -0.757 |
| RRIRCRPPRLPRPRPRPEIQPRP | 0.141 |
| RRIRVRPPRLPRPRPRPIAQPRP | -0.061 |
| RRIRYRPPRLPRPRPRPVFIPRP | -0.929 |
| RRIRIRPPRLPRPRPRPVAKPRP | -0.0157 |
| RRIRPRPPRLPRPRPRPMSEPRP | -0.327 |
| RRIRRRPPRLPRPRPRPVKIPRP | 0.266 |
| RRIRARPPRLPRPRPRPTKSPRP | 0.032 |
| RRIRGRPPRLPRPRPRPFDMPRP | 0.255 |
| RRIRNRPPRLPRPRPRPHLQPRP | -0.198 |
| RRIRRRPPRLPRPRPRPTDMPRP | -0.0645 |
| RRIRYRPPRLPRPRPRPFCDPRP | -0.208 |
| RRIRQRPPRLPRPRPRPRTPPRP | 0.676 |
| RRIRMRPPRLPRPRPRPTQLPRP | 0.668 |
| RRIRWRPPRLPRPRPRPTADPRP | 1.51 |
| RRIRDRPPRLPRPRPRPPKPPRP | 0.214 |
| RRIRMRPPRLPRPRPRPQHAPRP | 0.0286 |
| RRIRWRPPRLPRPRPRPINHPRP | -0.914 |
| RRIRFRPPRLPRPRPRPFFQPRP | -0.378 |
| RRIRVRPPRLPRPRPRPDDCPRP | -0.197 |
| RRIRARPPRLPRPRPRPSCHPRP | -0.138 |
| RRIRIRPPRLPRPRPRPDRVPRP | -0.0924 |
| RRIRKRPPRLPRPRPRPMGFPRP | -0.00871 |
| RRIRYRPPRLPRPRPRPFHYPRP | -0.21 |
| RRIRGRPPRLPRPRPRPFYNPRP | 0.0314 |

| Sequence | shrunken log2 fold change |
| --- | --- |
| RRIRGRPPRLPRPRPRPNSGPRP | 0.00625 |
| RRIRRRPPRLPRPRPRPNEMPRP | 0.245 |
| RRIRYRPPRLPRPRPRPVPAPRP | -0.156 |
| RRIRDRPPRLPRPRPRPIICPRP | -0.0435 |
| RRIRTRPPRLPRPRPRPGSMPRP | -0.199 |
| RRIRVRPPRLPRPRPRPTAHPRP | 0.246 |
| RRIRKRPPRLPRPRPRPMDHPRP | 0.34 |
| RRIRQRPPRLPRPRPRPHCTPRP | 0.157 |
| RRIRNRPPRLPRPRPRPDAFPRP | -0.0836 |
| RRIRQRPPRLPRPRPRPKGGPRP | 0.0347 |
| RRIRKRPPRLPRPRPRPKFVPRP | -0.0367 |
| RRIRIRPPRLPRPRPRPAGCPRP | -0.0691 |
| RRIRRRPPRLPRPRPRPAQIPRP | 0.494 |
| RRIRTRPPRLPRPRPRPHCYPRP | -0.136 |
| RRIRDRPPRLPRPRPRPIQRPRP | -0.01 |
| RRIRGRPPRLPRPRPRPLSEPRP | 0.52 |
| RRIRRRPPRLPRPRPRPVCSPRP | 0.225 |
| RRIRMRPPRLPRPRPRPPPMPRP | 1.54 |
| RRIRLRPPRLPRPRPRPFMFPRP | -0.306 |
| RRIRERPPRLPRPRPRPAPYPRP | -0.123 |
| RRIRERPPRLPRPRPRPDQIPRP | -0.084 |
| RRIRFRPPRLPRPRPRPSVTPRP | -0.322 |
| RRIRRRPPRLPRPRPRPGMFPRP | 0.00289 |
| RRIRPRPPRLPRPRPRPNLTPRP | 0.0262 |
| RRIRARPPRLPRPRPRPQWHPRP | -0.0862 |

| Sequence | shrunken log2 fold change |
| --- | --- |
| RRIRLRPPRLPRPRPRPQYYPRP | -0.396 |
| RRIRTRPPRLPRPRPRPHQCPRP | 0.021 |
| RRIRARPPRLPRPRPRPQALPRP | 0.274 |
| RRIRKRPPRLPRPRPRPAQYPRP | -0.141 |
| RRIRGRPPRLPRPRPRPGHMPRP | -0.129 |
| RRIRERPPRLPRPRPRPAGGPRP | 0.2 |
| RRIRPRPPRLPRPRPRPVMTPRP | -0.0299 |
| RRIRARPPRLPRPRPRPKGPPRP | 0.212 |
| RRIRMRPPRLPRPRPRPYITPRP | -0.393 |
| RRIRNRPPRLPRPRPRPAWWPRP | 0.293 |
| RRIRFRPPRLPRPRPRPWALPRP | 0.00634 |
| RRIRSRPPRLPRPRPRPPDIPRP | -0.283 |
| RRIRFRPPRLPRPRPRPRHNPRP | -0.275 |
| RRIRHRPPRLPRPRPRPWWIPRP | -0.177 |
| RRIRDRPPRLPRPRPRPAESPRP | -0.0371 |
| RRIRKRPPRLPRPRPRPPCHPRP | 0.176 |
| RRIRPRPPRLPRPRPRPYVMPRP | -0.706 |
| RRIRNRPPRLPRPRPRPAMRPRP | 0.842 |
| RRIRVRPPRLPRPRPRPCKPPRP | -0.692 |
| RRIRPRPPRLPRPRPRPIMLPRP | -0.114 |
| RRIRSRPPRLPRPRPRPFMLPRP | -0.411 |
| RRIRNRPPRLPRPRPRPCQFPRP | -0.0212 |
| RRIRPRPPRLPRPRPRPSLWPRP | 0.471 |
| RRIRRRPPRLPRPRPRPNPGPRP | -0.035 |
| RRIRMRPPRLPRPRPRPHSDPRP | 2.6 |

| Sequence | shrunken log2 fold change |
| --- | --- |
| RRIRGRPPRLPRPRPRPTAQPRP | 1.35 |
| RRIRWRPPRLPRPRPRPMSEPRP | 0.0832 |
| RRIRCRPPRLPRPRPRPDGDPRP | 0.0934 |
| RRIRLRPPRLPRPRPRPPWAPRP | 0.632 |
| RRIRNRPPRLPRPRPRPSPVPRP | 0.00108 |
| RRIRERPPRLPRPRPRPTRGPRP | 0.0807 |
| RRIRGRPPRLPRPRPRPSIGPRP | 0.0763 |
| RRIRARPPRLPRPRPRPDPQPRP | 0.698 |
| RRIRCRPPRLPRPRPRPWYWPRP | -0.286 |
| RRIRFRPPRLPRPRPRPAGAPRP | 0.515 |
| RRIRQRPPRLPRPRPRPGEDPRP | -0.0999 |
| RRIRMRPPRLPRPRPRPEIQPRP | 0.0386 |
| RRIRFRPPRLPRPRPRPIPMPRP | -0.428 |
| RRIRPRPPRLPRPRPRPDLNPRP | 0.168 |
| RRIRYRPPRLPRPRPRPVDSPRP | 0.0413 |
| RRIRARPPRLPRPRPRPPGTPRP | 0.898 |
| RRIRLRPPRLPRPRPRPWMKPRP | -0.249 |
| RRIRQRPPRLPRPRPRPTDPPRP | 0.107 |
| RRIRCRPPRLPRPRPRPTPMPRP | 0.534 |
| RRIRKRPPRLPRPRPRPVYEPRP | -0.115 |
| RRIRYRPPRLPRPRPRPDGWPRP | 0.212 |
| RRIRHRPPRLPRPRPRPPSFPRP | -0.234 |
| RRIRIRPPRLPRPRPRPKVAPRP | 0.283 |
| RRIRLRPPRLPRPRPRPRMFPRP | -0.0408 |
| RRIRFRPPRLPRPRPRPSMKPRP | -0.753 |
